Consider one protein from paper PMC9561763, “Semi-rational engineering membrane binding domain of L-amino acid deaminase from Proteus vulgaris for enhanced α-ketoisocaproate” (Frontiers in Microbiology, 2022).

Substrate in this data set: CC(C)C[C@H](N)C(=O)O
Nature of the data set: alpha-ketoisocaproate formation, Michaelis-Menten fit. The data set is classed as biochemical, Proteus vulgaris. Particulars: 20 mM phosphate pH 7.5, 37 °C, 0-175 mM L-leucine (b36 says optimal temperature and pH), Triton X-100 purified enzyme.

Source text: alpha-ketoisocaproate formation, Michaelis-Menten fit on L-amino acid deaminase (L-AAD) from Proteus vulgaris

B1: L-amino acid deaminase (L-AAD) from Proteus vulgaris (Proteus vulgaris) (protein)
chain: MAISRRKFIIGGTVVAVAAGAGILTPMLTREGRFVPGTPRHGFVEGTEGALPKQADVVVVGAGILGIMTAINLVERGLSVVIVEKGNIAGEQSSRFYGQAISYKMPDETFLLHHLGKHRWREMNAKVGIDTTYRTQGRVEVPLDEEDLVNVRKWIDERSKNVGSDIPFKTRIIEGAELNQRLRGATTDWKIAGFEEDSGSFDPEVATFVMAEYAKKMGVRIYTQCAARGLETQAGVISDVVTEKGAIKTSQVVVAGGVWSRLFMQNLNVDVPTLPAYQSQQLISGSPTAPGGNVALPGGIFFREQADGTYATSPRVIVAPVVKESFTYGYKYLPLLALPDFPVHISLNEQLINSFMQSTHWNLDEVSPFEQFRNMTALPDLPELNASLEKLKAEFPAFKESKLIDQWSGAMAIAPDENPIISEVKEYPGLVINTATGWGMTESPVSAELTADLLLGKKPVLDPKPFSLYRF
As a reminder, the Km is the substrate concentration at which the rate is half of its maximum. The term kcat denotes the number of substrate molecules converted per active site and unit of time at saturation. For orientation: kcat/Km means the turnover number divided by the Michaelis constant. Take B1: the Km is 17.71 mM, the kcat was 1.41 s⁻¹ and the kcat/Km worked out at 79.5 M⁻¹ s⁻¹.
